Laboratory results reported in article PMC4683259.

How the values were obtained:
[1] = biological target: KV10.1 voltage-gated potassium channel, full-length form (E100) (human) (UniProt O95259)
[2] = biological target: KV10.1 voltage-gated potassium channel, full-length form (E100) (human) (UniProt O95259); remark: listed apart in the source
[3] = biological target: KV10.1 voltage-gated potassium channel, full-length form (E100) (human) (UniProt O95259); remark: listed apart in the source

Chain of UniProt O95259 (O95259 whole entry): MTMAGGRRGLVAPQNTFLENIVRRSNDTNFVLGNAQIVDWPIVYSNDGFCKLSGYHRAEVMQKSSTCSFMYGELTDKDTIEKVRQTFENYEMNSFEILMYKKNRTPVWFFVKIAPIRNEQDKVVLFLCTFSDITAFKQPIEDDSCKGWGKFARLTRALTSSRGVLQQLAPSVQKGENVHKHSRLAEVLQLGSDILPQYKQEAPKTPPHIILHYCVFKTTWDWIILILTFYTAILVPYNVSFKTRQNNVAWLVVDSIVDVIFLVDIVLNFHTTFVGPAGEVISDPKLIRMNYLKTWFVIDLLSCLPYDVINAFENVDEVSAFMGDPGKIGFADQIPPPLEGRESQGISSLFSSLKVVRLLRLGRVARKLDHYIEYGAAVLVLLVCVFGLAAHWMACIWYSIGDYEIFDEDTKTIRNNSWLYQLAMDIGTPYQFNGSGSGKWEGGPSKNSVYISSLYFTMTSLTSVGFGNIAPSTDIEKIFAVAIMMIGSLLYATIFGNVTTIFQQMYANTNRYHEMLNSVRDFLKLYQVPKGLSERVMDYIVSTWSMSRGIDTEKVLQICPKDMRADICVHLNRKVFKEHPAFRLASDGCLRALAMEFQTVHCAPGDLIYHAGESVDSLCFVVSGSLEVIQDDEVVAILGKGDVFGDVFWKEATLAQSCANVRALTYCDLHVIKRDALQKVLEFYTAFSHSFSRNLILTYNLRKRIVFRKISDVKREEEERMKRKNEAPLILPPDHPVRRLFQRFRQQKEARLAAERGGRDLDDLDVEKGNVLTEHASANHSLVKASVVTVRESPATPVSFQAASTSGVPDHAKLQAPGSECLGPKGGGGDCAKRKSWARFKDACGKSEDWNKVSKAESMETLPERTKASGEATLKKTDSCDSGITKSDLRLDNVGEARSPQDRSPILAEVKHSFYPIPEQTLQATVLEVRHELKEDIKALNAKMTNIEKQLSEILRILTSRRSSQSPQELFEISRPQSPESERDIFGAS

## E65^L405YmVenus (TCC-defective E65 fused to mVenus) (natural protein)
[1]
  reduction of KV10.1 current amplitude, whole-cell patch clamp, HEK-KV10.1 cells transfected with E65^L405YmVenus (not statistically significant): 20.8%

## E65mVenus (KV10.1 splice variant E65 fused to mVenus) (natural protein)
[2]
  reduction of KV10.1 current, two-electrode voltage clamp, Xenopus oocytes co-injected with E65 and KV10.1 cRNA at a 1:10 ratio (E65 from pSGEM, no mVenus): 85%
[3]
  reduction of KV10.1 current, whole-cell patch clamp, HEK293 cells stably expressing KV10.1 and transfected with E65mVenus (control mVenus alone): 41.7%

## E70^L556YmVenus (TCC-defective E70 fused to mVenus) (natural protein)
[1]
  reduction of KV10.1 current density at +80 mV, whole-cell patch clamp, HEK-KV10.1 cells transfected with E70^L556YmVenus: 45.3%

## E70mVenus (KV10.1 splice variant E70 fused to mVenus) (natural protein)
[2]
  reduction of KV10.1 current, two-electrode voltage clamp, Xenopus oocytes co-injected with E70 and KV10.1 cRNA at a 1:10 ratio (E70 from pSGEM, no mVenus): 60%
[3]
  reduction of KV10.1 current, whole-cell patch clamp, HEK293 cells stably expressing KV10.1 and transfected with E70mVenus (control mVenus alone): 53.8%
